This experiment concerns the target ACE2-Fc fusion protein (extracellular domain of human ACE2 and the Fc region of human IgG1) (human) (UniProt Q9BYF1). Description: ELISA. Background: ELISA stands for enzyme-linked immunosorbent assay.

pEC50: −log10 of the molar value.

The pEC50 is the EC50 on a negative log10 scale, so that one unit is a factor of ten. Turning to “recombinant S1-subunit or RBD of SARS-CoV-2 variant B.1.1.7 (domain or fragment)”, the pEC50 is 9.10.
As for “recombinant S1-subunit or RBD of SARS-CoV-2 variant B.1.351 (domain or fragment)”, the figure is 8.16; as for “recombinant S1-subunit or RBD of SARS-CoV-2 variant P.1 (domain or fragment)”, 7.83.
“recombinant S1-subunit or RBD of SARS-CoV-2-D614G (domain or fragment)” gave a pEC50 of 8.59.
Under “recombinant S1-subunit or RBD of SARS-CoV-2 variant B.1.617.1 (domain or fragment)” stands 7.29.

The values are drawn from article PMC8385704.
